This is an account of results in patent US20250163127A1.

Experiment [1] deals with PD-L1 (human). Put plainly: flow cytometry, CHO cells expressing PD-L1. For orientation: Flow cytometry measures light scatter and fluorescence of single cells or particles in a stream.
In experiment [2] the target is CD28 (human) (UniProt P10747). Briefly: flow cytometry, Jurkat cells (CD28).
Experiment [3] concerns the target CTLA-4 (human). Briefly: flow cytometry, CHO cells expressing CTLA4.
The target of experiment [4] is CD28 (human) (UniProt P10747). Briefly: flow cytometry, cells expressing CD28.
Experiment [5] concerns the target CTLA-4 (human). Put plainly: flow cytometry, cells expressing CTLA-4.
For experiment [6], the target named is PD-L1 (human). Briefly: flow cytometry, cells expressing PD-L1.

Chain of PD-L1 (human) (chain, as listed by the source): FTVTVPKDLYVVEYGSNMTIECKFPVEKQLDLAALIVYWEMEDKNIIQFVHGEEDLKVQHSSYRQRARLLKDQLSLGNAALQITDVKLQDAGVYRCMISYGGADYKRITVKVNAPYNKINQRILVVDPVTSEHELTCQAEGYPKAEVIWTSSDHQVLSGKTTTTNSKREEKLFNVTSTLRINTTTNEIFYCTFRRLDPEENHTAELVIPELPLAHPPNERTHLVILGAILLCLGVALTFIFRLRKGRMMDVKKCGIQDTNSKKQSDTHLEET
Chain of CTLA-4 (human) (chain, as listed by the source): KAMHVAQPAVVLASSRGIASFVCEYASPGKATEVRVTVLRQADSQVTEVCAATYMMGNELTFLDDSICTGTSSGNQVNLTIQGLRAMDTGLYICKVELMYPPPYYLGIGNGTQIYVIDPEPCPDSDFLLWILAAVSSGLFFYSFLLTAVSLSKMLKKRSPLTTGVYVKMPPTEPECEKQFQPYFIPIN

B1: variant CD80 E35D/L85Q/K93T/E95V/L97Q (Fc fusion)
chain: VIHVTKEVKEVATLSCGHNVSVEELAQTRIYWQKDKKMVLTMMSGDMNIWPEYKNRTIFDITNNLSIVILALRPSDEGTYECVVQKYEKDAFTRVHQAEVT
For the molecule B1, the figures for the Fold change to WT CD80 with PD-L1 (human) [1], with CD28 (human) [2] and in the experiment with CTLA-4 (human) [3] were 1.67 fold, 0.02 fold and 1.57 fold, respectively. The MFI at 33.3 nM stood at 19900 MFI in the experiment with PD-L1 (human) [1], 400 MFI with CD28 (human) [2] and 246000 MFI in the experiment with CTLA-4 (human) [3].

B2: variant CD80 Q33L/E35D/M47I/N48D/A71G (Fc fusion)
chain: VIHVTKEVKEVATLSCGHNVSVEELAQTRIYWLKDKKMVLTMMSGDIDIWPEYKNRTIFDITNNLSIVILGLRPSDEGTYECVVLKYEKDAFKREHLAEVT
Take B2: the values for the Fold change to WT CD80 with PD-L1 (human) [1], with CD28 (human) [2] and in the experiment with CTLA-4 (human) [3] were 2.62 fold, 0.04 fold and 0.74 fold, respectively. Further, the MFI at 33.3 nM was determined as 31200 MFI with PD-L1 (human) [1], 644 MFI with CD28 (human) [2] and 117000 MFI with CTLA-4 (human) [3].

B3: variant CD80 R29H/E35D/M43V/M47I/I49V (Fc fusion)
chain: VIHVTKEVKEVATLSCGHNVSVEELAQTHIYWQKDKKMVLTMVSGDINVWPEYKNRTIFDITNNLSIVILALRPSDEGTYECVVLKYEKDAFKREHLAEVT
As to B3, the Fold change to WT CD80 with PD-L1 (human) [1] worked out at 0.13 fold; with CD28 (human) [2], 0.02 fold; with CTLA-4 (human) [3], 0.03 fold. The MFI at 33.3 nM in the experiment with PD-L1 (human) [1] stood at 1590 MFI; in the experiment with CD28 (human) [2], 336 MFI; in the experiment with CTLA-4 (human) [3] it was 4690 MFI.

B4: variant CD80 E35D/M47I/L85Q/D90G (Fc fusion)
chain: VIHVTKEVKEVATLSCGHNVSVEELAQTRIYWQKDKKMVLTMMSGDINIWPEYKNRTIFDITNNLSIVILALRPSDEGTYECVVQKYEKGAFKREHLAEVT
In the case of B4, the Fold change to WT CD80 was determined as 3.01 fold with PD-L1 (human) [1], 0.23 fold with CD28 (human) [2] and 1.57 fold with CTLA-4 (human) [3]. The MFI at 33.3 nM in the experiment with PD-L1 (human) [1] turned out to be 35700 MFI; with CD28 (human) [2] it was 4100 MFI; in the experiment with CTLA-4 (human) [3], 248000 MFI.

B5: variant CD80 V22A/E35D/M47I/Y87N (Fc fusion)
chain: VIHVTKEVKEVATLSCGHNVSAEELAQTRIYWQKDKKMVLTMMSGDINIWPEYKNRTIFDITNNLSIVILALRPSDEGTYECVVLKNEKDAFKREHLAEVT
Regarding B5, the MFI at 33.3 nM in the experiment with CD28 (human) [2] amounted to 15300 MFI; with CTLA-4 (human) [3], 246000 MFI.

B6: variant CD80 E35D/M47V/N48K/V68M/K89N (Fc fusion)
chain: VIHVTKEVKEVATLSCGHNVSVEELAQTRIYWQKDKKMVLTMMSGDVKIWPEYKNRTIFDITNNLSIMILALRPSDEGTYECVVLKYENDAFKREHLAEVT
B6: the Fold change to WT CD80 is 7.56 fold with PD-L1 (human) [1], 0.65 fold with CD28 (human) [2] and 0.01 fold in the experiment with CTLA-4 (human) [3]. Besides, the MFI at 33.3 nM in the experiment with PD-L1 (human) [1] came to 89800 MFI; in the experiment with CD28 (human) [2] it was 11700 MFI; with CTLA-4 (human) [3], 807 MFI.

B7: variant CD80 Q27H/E35D/M47I/L85Q/D90G (Fc fusion)
chain: VIHVTKEVKEVATLSCGHNVSVEELAHTRIYWQKDKKMVLTMMSGDINIWPEYKNRTIFDITNNLSIVILALRPSDEGTYECVVQKYEKGAFKREHLAEVT
With B7, the Fold change to WT CD80 came to 2.58 fold in the experiment with PD-L1 (human) [1], 0.19 fold in the experiment with CD28 (human) [2] and 1.64 fold in the experiment with CTLA-4 (human) [3]. The MFI at 33.3 nM worked out at 30700 MFI with PD-L1 (human) [1], 3510 MFI with CD28 (human) [2] and 258000 MFI with CTLA-4 (human) [3].

B8: variant CD80 E35D/M47I/T62S/L85Q (Fc fusion)
chain: VIHVTKEVKEVATLSCGHNVSVEELAQTRIYWQKDKKMVLTMMSGDINIWPEYKNRTIFDISNNLSIVILALRPSDEGTYECVVQKYEKDAFKREHLAEVT
With B8, the Fold change to WT CD80 with PD-L1 (human) [1] turned out to be 3.79 fold; with CD28 (human) [2] it was 0.1 fold; with CTLA-4 (human) [3] it was 1.91 fold. Further, the MFI at 33.3 nM stood at 45000 MFI with PD-L1 (human) [1], 1760 MFI with CD28 (human) [2] and 301000 MFI with CTLA-4 (human) [3].

B9: variant CD80 E24G/R29D/Y31L/Q33H/K36G/M38I/T41A/M43R/M47T/F59L/E81V/L85R/K89N/A91T/F92P/K93V/R94L/H96R/N149S/C182S (Fc fusion)
chain: VIHVTKEVKEVATLSCGHNVSVEGLAQTDILWHKEGKIVLAMRSGDTNIWPEYKNRTILDITNNLSIVILALRPSDEGTYVCVVRKYENDTPVLERLAEVTLSVKADFPTPSISDFEIPTSNIRRIICSTSGGFPEPHLSWLENGEELSAINTTVSQDPETELYAVSSKLDFNMTTNHSFMSLIKYGHLRVNQTFNWNTTKQEHFPDN
For the molecule B9, the MFI in the experiment with CD28 (human) [4] stood at 1070 MFI; with CTLA-4 (human) [5], 1020 MFI; with PD-L1 (human) [6] it was 1120 MFI. For the same molecule, the parental ratio in the experiment with CD28 (human) [4] turned out to be 0.08; with CTLA-4 (human) [5], 0.02; with PD-L1 (human) [6] it was 0.06.

B10: variant CD80 K36G/K37Q/M38I/L40M (Fc fusion)
chain: VIHVTKEVKEVATLSCGHNVSVEELAQTRIYWQKEGQIVMTMMSGDMNIWPEYKNRTIFDITNNLSIVILALRPSDEGTYECVVLKYEKDAFKREHLAEVTLSVKADFPTPSISDFEIPTSNIRRIICSTSGGFPEPHLSWLENGEELNAINTTVSQDPETELYAVSSKLDFNMTTNHSFMCLIKYGHLRVNQTFNWNTTKQEHFPDN
As to B10, the figures for the MFI in the experiment with CD28 (human) [4], in the experiment with CTLA-4 (human) [5] and with PD-L1 (human) [6] were 1170 MFI, 1400 MFI and 959 MFI, respectively. Besides, the parental ratio with CD28 (human) [4] amounted to 0.09; with CTLA-4 (human) [5], 0.03; with PD-L1 (human) [6] it was 0.05.

B11: variant CD80 R29V/M43Q/E81R/L85I/K89R/D90L/A91E/F92N/K93Q/R94G (Fc fusion)
chain: VIHVTKEVKEVATLSCGHNVSVEELAQTVIYWQKEKKMVLTMQSGDMNIWPEYKNRTIFDITNNLSIVILALRPSDEGTYRCVVIKYERLENQGEHLAEVTLSVKADFPTPSISDFEIPTSNIRRIICSTSGGFPEPHLSWLENGEELNAINTTVSQDPETELYAVSSKLDFNMTTNHSFMCLIKYGHLRVNQTFNWNTTKQEHFPDN
On to B11, for which the MFI was found to be 1030 MFI with CD28 (human) [4], 996 MFI with CTLA-4 (human) [5] and 1580 MFI in the experiment with PD-L1 (human) [6]. For the same molecule, the parental ratio was 0.08 with CD28 (human) [4], 0.02 with CTLA-4 (human) [5] and 0.09 in the experiment with PD-L1 (human) [6].

B12: variant CD80 I67F/L70R/E88G/A91G/I118V/T120S/T130A (Fc fusion)
chain: VIHVTKEVKEVATLSCGHNVSVEELAQTRIYWQKEKKMVLTMMSGDMNIWPEYKNRTIFDITNNLSFVIRALRPSDEGTYECVVLKYGKDGFKREHLAEVTLSVKADFPTPSISDFEVPSSNIRRIICSASGGFPEPHLSWLENGEELNAINTTVSQDPETELYAVSSKLDFNMTTNHSFMCLIKYGHLRVNQTFNWNTTKQEHFPDN
B12: the MFI came to 5 MFI with CD28 (human) [4], 6 MFI in the experiment with CTLA-4 (human) [5] and 6 MFI with PD-L1 (human) [6]. Besides, the values for the parental ratio with CD28 (human) [4], in the experiment with CTLA-4 (human) [5] and in the experiment with PD-L1 (human) [6] were 0.05, 0.03 and 0.08, respectively.

B13: variant CD80 A91G/F92L/F108L/I118V/T120S (Fc fusion)
chain: VIHVTKEVKEVATLSCGHNVSVEELAQTRIYWQKEKKMVLTMMSGDMNIWPEYKNRTIFDITNNLSIVILALRPSDEGTYECVVLKYEKDGLKREHLAEVTLSVKADLPTPSISDFEVPSSNIRRIICSTSGGFPEPHLSWLENGEELNAINTTVSQDPETELYAVSSKLDFNMTTNHSFMCLIKYGHLRVNQTFNWNTTKQEHFPDN
For the molecule B13, the MFI with CD28 (human) [4] was 50 MFI; with CTLA-4 (human) [5], 128 MFI; with PD-L1 (human) [6], 16 MFI. Also, the parental ratio with CD28 (human) [4] amounted to 0.53; with CTLA-4 (human) [5], 0.61; with PD-L1 (human) [6] it was 0.11.
